# Results: the supplement of paper PMC12636428
# Tested on: Saccharomyces cerevisiae
# Experiment: transcriptional activation domain activity (GFP:mCherry ratio, weighted mean of sorted bins, harmonized to initial dataset scale) (arbitrary fluorescence ratio units); higher = stronger transcriptional activation
# Conditions: beta-estradiol 1 µM; induction time 4 h
# Procedure: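 53-aa protein tiles (fungal proteins plus yeast TF control tiles) fused C-terminally to a DBD-estrogen-binding domain-mCherry synthetic TF, integrated in S. cerevisiae (URA3 locus) with a GFP reporter. Cells were induced with 1 uM beta-estradiol for 4 h at 30 C, FACS-sorted into 8 bins by GFP:mCherry ratio and barcodes sequenced. Activity is the read-weighted mean bin fluorescence (GFP:mCherry), averaged over barcodes (median 12); tiles under 50 reads were discarded. New active-learning values were harmonized by linear fit onto the scale of the initial (Hummel et al.) dataset. The assay saturates at low and high signal.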
row,Sequence,transcriptional activation domain activity
1,MSLWISILHTTFLVGYHSIILSLSSPYHYCYLSFLFPIYPFLLGLFVFSLLSS,56600
2,KDESSSSRRRRGGRSEKEKRERTGDEGDSSSRHRSGRDREGDEEADDDERGSS,37500
3,PSHEYNKTLSALLILLESSAERCFKDLTLLRAAGVTLLGRLFLVFPVFFNPRH,57600
4,LPTKYRVLDGLFQALAVRAGGFYVVTIANLRQGLLYVSAYPVTLTMRNTNVYE,48900
5,GSWMILRILLHQLLDSVQYIPEYKDIAALRYRGPTYYFQELQKAFYHVLDAVP,65200
6,SPLPPPSPFFPLQPLSLFHLSPLFSPVSLHFPCFSPFPPPLPPFFLPLLPLLS,60500
7,KQYCVRPNSGRIEAGKEVEVQVLLQAMKEDPPADAKCRDKFLVQSVAISADKE,17800
8,GEKEASGENTSNGTTATTVKPSSSSDEEKAAKKENKEAATTTNNGIKNSATAS,30300
9,AKRGRASSNASSVQGSTGAASGSSRNKRGGAAEERAGSTSADLANKTADQRKR,22900
10,MRVCVTSLFFFPLSFFPILIKLFLLSHHLFPTSNPFSFVFSSFAPFLPAFSFI,40900
11,NNTNNASPATSTVSLQLPNLPDQNSLTPNAQNNTVTLRKGFHVLLVEDDAVSI,23700
12,DDSRERRRSSRKDREKDRKERKRHRHRSDDKSEDDDDRRHRKDRKRSRPSSAA,22100
13,RRRFHRRVTGCNCGVKTYKLGESYNDEFESTYLSYYACRICLLVTSLYIARFW,44500
14,KAAVPKTKAAPKAKAVKAPKEKKAAAPKAKAAAKPKAAPKAKKAAAPKAAPAV,29000
15,PKCSSLRKPTNTLQGTNHAYHEHILNTDMDLKILEDLCNISSLYEVPFGKHIN,115000
16,MSFLHCFFHVRYFPSNLFVIVIMFLLLFVHSFARGWRMEYAVSFLFNSLVLMY,61700
17,KQPEPRTRSASPKRAASPAKPVAAEKPAAVAAAAEKPAEKVAEKAAEKPAPAV,31400
18,KSVLCDLVFTMFADLRDPSVSRRFATVDDLELWFSTTLIKALRHLVALFTEYY,50400
19,PYILPLLILSKRLHSIFMLRCFNDCFAILFLFLAILCFQRRHWTVGSLIYSWG,48300
20,TWPINYRIRYILPLLVIAGYTKETLRLIQCIHQTRSSFFTPHFFRRMLRVLLR,52500
21,MAASDGPSPKKRKFARAVNTCAPCARRKVKCDRESHAPCSNCRKRRETALCEP,9660
22,YFVYLLQLIYYICFSIGVSFSMKVFDYVTFMDSITGHAGHMLCVCIFFLIGAV,75800
23,SPSSGLNINFFYHEVLMVLSLFNSMTRPDVMRWYAKTRFYHIVNLTAWQIYPC,57400
24,PVPAKEPAAVEAPEKEVAEEAKLEDGEIADEAKADDSAEEKPADGAAAAAAAP,34700
25,VGISLFLIACKLYLTVYYNELLISNPASAKSIYKILEYVNIMVYVSKAFGMYQ,62800
26,KAFRLVHGILQRSHPRTLDRLFSSMLWLLHNGLTEVALLLRDYIRSLSIRLTS,53000
27,MVFSLASLSLLCLCLISFFFYLFFFFFFYQIPSPCFALWLANFYLSCRAWLDK,46600

row,Sequence,transcriptional activation domain activity
1,PASRGYDRDRDYRRSPSPRERRERDRSRDRDYDRPRSPAVRATLSSSPAPAAL,22600
2,VGVWIWVRVDLLSYRKAGFIDWLFTDVPPKLALIAIFNVHILHTLLLALQWYT,55400
3,APSRRTGRTSTAGSASESRPTSSCTSPRRPPTPPARPPASPRTRRTSPRRPSA,31000
4,MKIVWFSGPKVCTLFIFLLFCFLLSCCSAFLVSFFCWFLSCWLFLLAFGLLFF,49400
5,RDSKTDVEAEVEAAEKDEKKGKKRKRAEVVAAEESAEARKGKSKKSSRKGKEV,34100
6,MPNCLNIRFFLFFLLKFLYAPLSFLLFPYPSHAYLFFHVLLLINCLFVDVIPV,54600
7,MLSLIFLFMIPYIHDNIFISYSPITKFMHLFIPFIIITNIFLFYTYFSILLSL,37600
8,MLQQRGILRVFRIGLFILFVILLFSFLVFVTFFISLAFPHLLLVLCIFFHFFN,44200
9,LLPGPPFPFPPLLLFFLVVFLSCSFFELSFMFLFFVYFFFISLFFCIFFFDNH,34700
10,IYVLHLFSTFPIFPLFPLFPIFLNFFIFLILILIFPIFPIFPIFPIFLIFPIF,52900
11,MSRKIYCTPAFSTIHLLYLHNFFLIPIYYLQTSLRNILSKLSFCLILSILLLP,52900
12,RVEAQVRDRRVEAQVRDRRAEAQVRARDHRSKVQVRNRQSKAEAEAQVRSQAR,33900
13,YSIQVFMVPQLAICKVDSIGNVIGGQGGCYNLIPVFDWVRRCVVSIFLVFMVA,71500
14,YLIRLILVILLMEFMLHYIYVQALCKSKNFENYTPYQLLMISFFSLKFIWLKL,58900
15,FDRLIPEWAHAWKPVEGIWMLWWIKHQIFFALGVLQLLNQYWFFLILRILVRT,56300
16,MLCLTYLVFLRVYGHLLWVELGLFFFSFSKSNYHVIRHGLPFFCYNGAWMEFL,56900
17,MNQTRHFFSPFFLFSLFLSFPSFLLSSFLLLFLPFYFSPSYLLLCLFSLIFYK,52800
18,MLILLYLSLLPILYFCTDGLIKDTLLYLHACGLIVWWHCPSSTGDMYGLRHFW,55800
19,ILRLWQIFWVAAKTDHMSYPRFEAPGCGDFCRDWKVLVAIILIRTKLTMGTRC,52200
20,PAASGSDDDEPIAAKKPSAPRKRKAKVESDSDDEKPIAKKLAAKKPRASKVKA,14100
21,RDDGDDDDGDDHDEEREDGGTRGEGRRRGEKGGREGEAARAEVHEASAEAEAG,16300
22,WIPFTLSIIVVEIPYLLFFSTSLLCGIYWTAGLSNTPDAVGYFYLMIFFFIFW,61600
23,NLRLMIVNFRKYGVLICIRCHDYRRQDVVYGLLLYLLVPCHLFVAYLIELAAA,47800
24,LLTFKLHRLFVVSQKMEDEGVRKLILHLTCCLLPKPNRDSMEAICLFLRWVAS,83200
25,EVGAKTFLAGLAGSGGSGGVYRCVIDKSRPAVWRLRKNDAPLSSFAAALLVSN,72500
26,STLVFLKLYSSLMLGTCLTSILCFSLPDFFPGKRGFAIGLCLYHSICSTVLFQ,63900
27,QYETPAPKDFLDDFVSLTDFFTFFDDPVDLYDVGSFAFQQPHSMNIDFDPAML,152000

row,Sequence,transcriptional activation domain activity
1,GEDTAQEGGEEGATSADEEETASTTRSGRKPKKIKTAVPIKRKRRSGRGGIAA,31200
2,ILLMELILHTVYCVAISKWGHWEAFSVYEISLIGYMRLSFIWLKLLVIWRFAR,88100
3,YKTCILPGADPGVNYIVGDDYLAVNYGYYVWQRWINFIAVCLFFLFFTVLTCL,55900
4,MNRFSIRFTFVISLIDILRGIIILLYTYIHNVGFQCSLISFLFHWLTLVYFFL,55100
5,KTPAAANKAGGGGAGGKSAGGRGKTQRARGGRVKQATTQKQTATPKQQQTAAK,24000
6,CKWLGFILLFVPVILSFLFPFLFYSFFSSFVFFFFFFFFVMAVFLFLQSPRSF,23300
7,IVNFTLLVLIVPRLSIWCRPHSKRMHGAGVWDSFVLARASIFVSVLGVLCVAL,54400
8,LLHPDKREPIDEDIWTVIPRGIRCEMMTFDLHIWLRRLVECLYKCLLENLVPT,46600
9,KRQKSRKGSESDAESEGEGDRGGARAYGKSRPQGRSADARADRKSAKGARAPQ,34200
10,MCYIIIVRWKRVWISCSCLAVIPVCPSIIPLLSILILSSLFFPFNPIFPIHGI,34100
11,RLMKKKKKSSLVFVFNHFRPVYVFLFFFSLYFFPFLSTPYFFPSFFFLFLFWV,49900
12,WDLLLGIQMSWDAVLDLWPRLWAWFEFLDTYSDILSSLLVYLSDADFSLIWVL,62800
13,VKPASRASAKPPSTTGAKKPASRASSRKPASKVGKEDKENGDAAAASAAAPDT,25100
14,MFMKHGDVSLGYEVCFCILIIITFGLSFFFFFFFHFFLFFHFWLFVSLLFFSD,41900
15,WLLTFFTVDFLPNRDLRILLANWLNTLIHDPILKKHTDGLGIVRRLVKVAKEC,48400
16,MADTSTDGGPERTPVAAPISIKACDQCRARKVRCDKTSPCANCRKHNVKCTTS,19000
17,GYCLKIRDRFFIFLWHCWVRGIVVTPFGSKIISGLSFESIPQSSCVLIQNVTI,28400
18,ENNVPLLERFREFPWLLSDLIFPFMMEYMLVWYLIWETILNILAELTYFADRS,27300
19,FFAFTFILMMACLVSGIGWCLLYFTCMYLLLIYYILSLFFYSPLASCNSFFFF,27200
20,MCLRKVSSLFYIGILFVDLFPTTYVSWWFFFFFLCLNLFVLAMICFGVFWFLC,29300
21,SATARTTTTTRTATSTTTTAKPSTTTRPSTTTTTTAARRPGTTTTTPARTSVT,38700
22,MLGSARVWQKRACMGFSFSLVIVSFTPPHRLFSHVQLGSIVSLLFFVTLFNFM,20700
23,MIGHDYLLVVVPIPILSLLHVSLLPYFFYFFVLVLVFLYLFLLRFLSFLLLLL,65700
24,VLCTCVPRQLVEPLVKLRKIHRRLAMTWIAALDYFASYRLVPFIRMIMELESV,44700
25,MISLFFFLFLYHIYVFLLLLLLYFLPSLPYPPIYTLYIVSLIIPHLVYLLQNS,31400
